From publication PMC5149022, “A ^99mTc-tricine-HYNIC-labeled Peptide Targeting the Melanocortin-1 Receptor for Melanoma Imaging” (Iranian Journal of Pharmaceutical Research : IJPR, 2016)
Bridge positions count the residues as written; N and C are the ends. Square brackets hold non-standard residues; d marks the D form. Peptide text beside a SMILES is read from it. * marks the point of attachment. HYNIC = NNc1ccc(C(=O)*)cn1; Nle = CCCC[C@H](N)C(=O)O; GABA = NCCCC(=O)O

Experiments:
[1] = Stability of radiolabeled peptide in human serum; type: in vitro ADME; conditions: fresh human serum, 37 °C, RP-HPLC with gamma detector
Method: (§1) The stability of radiolabeled peptide in aqueous solution was evaluated by incubation of the reaction mixture at ambient temperature (25 °C) up to 24 h. Stability in human serum at 37 °C was tested in parallel after adding 100 μL of reaction mixture to 1mL of fresh human serum. The incubation mixtures were sampled at 1,6 and 24 h time points. Serum samples (100–200 μL) were treated with ethanol (200–400 μL) and centrifuged (4000 g, 5 min, 4 °C) to precipitate the serum proteins.20–100 μL aliquots from the supernatant were separated to assess the degradation of ^99mTc labeled peptide by RP-HPLC. 100 μL aliquots from the 25 °C incubated mixture were passed from a 0.22 μ filter to eliminate the probable ^99mTc colloids and then, 5–20 μL of filtrate were analyzed by RP-HPLC as well.

[2] = Stability of radiolabeled peptide in aqueous solution; type: physicochemical
Method: as §1

[3] = Protein binding by precipitation method; type: in vitro ADME
Method: Protein binding of radiolabeled peptide was measured by precipitationmethod resulting 37%forradioconjugate. Plasma proteins binding could be due to transchelation, which is possible with exchange reactions among co-ligands and the possible action of HYNIC as a mono- or bi-dentated ligand complexing ^99mTc.

[4] = system: B16/F10 tumor (MC1 receptor); experiment: Biodistribution in B16/F10 tumor bearing nude mice; type: in vivo; conditions: nude mice with B16/F10 tumor
Method: Animal experiments were performed in compliance with the regulations of our institution and with generally accepted guidelines governing such work.Groups of three nude mice were used in each experiment. A suspension of B16/F10 cells (1×10^7) in PBS was subcutaneously injected in the right flank of each nude mice. Seven days after inoculation, the tumors were inducted and then, ^99mTc-tricine-HYNIC-peptide (20 MBq) was injected via a femoral vein. Also a group of three animals were injected with peptide ([…]) in saline (0.9%; […]) as a co-injection with the radiopeptide (blocked animals). After 1, 4 and 24 h, the groups of mice were killed, then the organs of interest were excised, weighed and counted in the gamma counter. The percentage of the injected dose per gram (% ID/g) was calculated for each tissue. At 4 h after injection, accumulation of the tracer in tumor area was also assessed by planar scintigraphy under ether anesthesia.

CCCC[C@H](NC(=O)CCCNC(=O)c1ccc(NN)nc1)C(=O)N[C@H]1CC(=O)NCCCC[C@@H](C(N)=O)NC(=O)CNC(=O)[C@H](Cc2c[nH]c3ccccc23)NC(=O)[C@H](CCCNC(=N)N)NC(=O)[C@@H](Cc2ccccc2)NC(=O)[C@H](Cc2c[nH]cn2)NC1=O [^99mTc-tricine-HYNIC-peptide, ^99mTc-tricine-HYNIC-GABANle-CycMSHhept, metal not drawn] ({HYNIC-GABA}-[Nle]DH[dF]RWGK-NH2; lactam 2-8)
labeling yield remaining after incubation in human serum ([1]; 24 h): 75%
stability in human serum (release of 99mTcO4- or peptide degradation) ([1]; 100 μL reaction mixture in 1 mL serum, up to 6 h, ethanol precipitation): no significant release of ^99mTcO4^− or peptide degradation
labeling yield remaining after incubation in aqueous solution ([2]; reaction mixture, ambient temperature (25 °C), 24 h, RP-HPLC with gamma detector): 75%
stability in aqueous solution (release of 99mTcO4- or peptide degradation) ([2]; reaction mixture, ambient temperature (25 °C), up to 6 h, 0.22 μ filtered, RP-HPLC with gamma detector): no significant release of ^99mTcO4^− or peptide degradation
radiochemical stability ([2]; up to 6 h post labeling): excellent radiochemical stability
protein binding [3]: 37%
kidneys uptake ([4]; 20 MBq via femoral vein, 1 h after injection, n = 3): 7.38 ± 0.56 % ID/g
tumor uptake ([4]; 20 MBq via femoral vein, 4 h, n = 3): 4.51 ± 0.11 % ID/g
blood uptake ([4]; 1 h, n = 3): 1.26 ± 0.13 % ID/g
intestines uptake ([4]; 1 h, n = 3): 0.65±0.05 % ID/g
liver uptake ([4]; 1 h, n = 3): 1.48 ± 0.08 % ID/g
tumor uptake, blocked group ([4]; co-injection of cold peptide, time not stated): 2.33 % ID/g
liver uptake ([4]; time not stated): lower than 2.0 % ID/g
